Target: AffiTagged cyclicPfAMA1-DI (folded protein 45) (Plasmodium falciparum)
Test: SPR; AffiTagged cyclicPfAMA1-DI held on a nickel-NTA chip (BI-4500, Biosensing Instrument Inc.), PfRON2_(2021-2059) in solution; kinetic fit, average of three repeats

## PfRON2_(2021-2059) peptide (rhoptry neck protein 2 ectodomain peptide) (from UniProt Q8IKV6 2021-2059)
  Kd: 0.5 µM
  koff: 0.0708 s⁻¹
  kon: 142000 M⁻¹ s⁻¹
